Data taken from PMC5454011.

Columns and labels:
[1] = biological target: YgjG-protein A fusion protein (shared helix method) (E. coli | Staphylococcus aureus); test: crystal structure; vapour diffusion; complex of YgjG-protein A with ZpA963-PKA_C
[2] = biological target: YgjG-protein A fusion protein (shared helix method) (E. coli | Staphylococcus aureus); test: crystal structure; vapour diffusion; complex of YgjG-protein A with ZpA963-calmodulin; 5 mM CaCl2 in all buffers
[3] = biological target: MrsD-protein A fusion protein (shared helix method) (not stated | Staphylococcus aureus); test: crystal structure; vapour diffusion; crystals of a single fusion protein

stoichiometry N [1] | stoichiometry N [2] | stoichiometry N [3] | Substance
4 | 4 |  | YgjG-protein A fusion protein (shared helix method)
 |  | 12 | MrsD-protein A fusion protein (shared helix method)
